From article PMC7859323
“And” between values parts separate entries of the source, which are not always exact repeats. Equal values may be shown once.

Target: Gla domainless factor VIIa (human) (UniProt P08709)
Assay: titration of enzyme activity (rate of FX activation by des Gla-FVIIa)

Chain of UniProt P08709 (P08709 21-466, chain 1 of 2): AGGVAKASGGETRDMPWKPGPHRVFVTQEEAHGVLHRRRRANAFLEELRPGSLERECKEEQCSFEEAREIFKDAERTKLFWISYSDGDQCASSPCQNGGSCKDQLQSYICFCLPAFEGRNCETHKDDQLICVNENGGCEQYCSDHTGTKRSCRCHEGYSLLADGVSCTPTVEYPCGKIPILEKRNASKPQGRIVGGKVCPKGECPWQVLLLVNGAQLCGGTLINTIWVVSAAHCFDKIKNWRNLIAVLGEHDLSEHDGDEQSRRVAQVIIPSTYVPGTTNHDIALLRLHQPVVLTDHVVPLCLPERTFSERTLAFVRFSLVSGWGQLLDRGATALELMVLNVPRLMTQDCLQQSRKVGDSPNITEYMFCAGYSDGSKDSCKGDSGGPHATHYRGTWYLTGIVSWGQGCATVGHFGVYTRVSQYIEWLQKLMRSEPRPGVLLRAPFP
Chain of UniProt P08709 (P08709 213-466, chain 2 of 2): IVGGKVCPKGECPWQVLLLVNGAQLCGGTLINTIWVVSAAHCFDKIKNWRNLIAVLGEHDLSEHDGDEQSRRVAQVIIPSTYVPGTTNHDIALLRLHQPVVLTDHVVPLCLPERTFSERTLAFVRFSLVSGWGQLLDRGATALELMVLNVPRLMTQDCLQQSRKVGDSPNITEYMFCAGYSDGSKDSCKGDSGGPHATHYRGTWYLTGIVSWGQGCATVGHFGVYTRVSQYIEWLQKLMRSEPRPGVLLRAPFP

Substance: recombinant soluble tissue factor (from UniProt P13726 33-251) (domain or fragment)
- Kd: 5 nM and 2.7 nM
